Ends that are not written are not given here.
Legend:
[1] = biological target: T1, human PAD4 (Peptidylarginine deiminase 4) (human, UniProt Q9UM07 1-663); experiment: SPR (Biacore T200), antibody captured on rabbit anti-mouse polyclonal antibody on CM5 chip, human PAD4 as analyte
T1 construct: also called full-length recombinant human PAD4 protein; active PAD4

[2] = biological target: T1, human PAD4 (Peptidylarginine deiminase …); experiment: cell-based or functional assay
[3] = biological target: T2, BSA-modified peptide antigen FFTYHIRHGEVHC (SEQ ID NO: 1) (human, also: BSA carrier conjugate); experiment: ELISA, culture supernatant of CHO cells on immobilised BSA-modified peptide
T2 construct: also called peptide corresponding to positions 633-644 of PAD4
T2 peptide: FFTYHIRHGEVHC

T1 sequence (Q9UM07 whole entry): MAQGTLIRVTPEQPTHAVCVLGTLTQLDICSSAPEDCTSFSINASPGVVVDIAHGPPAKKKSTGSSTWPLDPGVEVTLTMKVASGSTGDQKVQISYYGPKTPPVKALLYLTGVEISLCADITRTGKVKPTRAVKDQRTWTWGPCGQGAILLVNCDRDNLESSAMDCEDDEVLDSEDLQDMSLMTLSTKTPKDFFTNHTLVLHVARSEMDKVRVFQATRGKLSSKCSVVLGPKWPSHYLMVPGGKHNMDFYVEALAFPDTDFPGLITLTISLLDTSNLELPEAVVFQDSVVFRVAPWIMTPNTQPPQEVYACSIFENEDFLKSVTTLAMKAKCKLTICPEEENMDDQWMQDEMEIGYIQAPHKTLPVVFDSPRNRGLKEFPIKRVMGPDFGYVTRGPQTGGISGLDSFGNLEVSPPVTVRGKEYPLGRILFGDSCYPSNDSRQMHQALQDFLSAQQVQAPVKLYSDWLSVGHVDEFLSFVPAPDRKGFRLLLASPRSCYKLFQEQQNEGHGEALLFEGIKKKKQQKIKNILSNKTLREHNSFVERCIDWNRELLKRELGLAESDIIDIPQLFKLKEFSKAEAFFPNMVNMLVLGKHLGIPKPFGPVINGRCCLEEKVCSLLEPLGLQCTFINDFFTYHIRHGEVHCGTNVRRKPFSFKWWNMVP

B1: P1 (antibody, V domains shown)
VH: AVTLDESGGGLQTPGGGLSLICKASGFHMRSYAMNWVRQAPGKGLEFVAGIDNSGRYRNYGAAVKGRATISRDNGQSTVRLQLNNLRAEDTGIYYCAKNFDVGGDGCDWSSGCIDAWGHGTEVIVS
VL: ASTQPSSVSANPGETVKITCSGGSSTYYGWYQQKSPGSAPVTVIYQNTKRPSGLSSRFSGSKSGSTATLTITGVQAEDEAVYFCGGYDTRTYAGIFGAGTTLTVL
notes: Chicken variable regions recombined into mouse chimeric antibody (IgG1) expression vectors; also called anti-PAD4 antibody P1; P1 etc
Kd [1]: 73 nM | inhibition rate of citrullinating activity of active PAD4 (BAEE substrate, colorimetric) [2]: 63%

B2: P3 (antibody, V domains shown)
VH: AVTLDESGGGLQTPGGGLSLICKASGSTIRSYAMNWVRQAPGKGLEFVAGIDNSGRYTNYGAAVKGRATISRDNGQSTVRLQLNNLRAEDTGIYYCAKNVDVAGYGCDWSSGCIDTWGHGTEVIVS
VL: ASTQPASVSANPGETVKITCSGGSSTYYGWYQQKSPGSAPVTVIYENTNRPSDIPSRFSGSKSGSTATLTITGVQADDEAVYFCGGYDRTNYAGIFGAGTTLTVL
notes: Chicken variable regions recombined into mouse chimeric antibody (IgG1) expression vectors; also called anti-PAD4 antibody P3; P1 etc
binding result [3]: binds | Kd [1]: 24 nM | inhibition rate of citrullinating activity of active PAD4 (BAEE substrate, colorimetric) [2]: 80%

B3: P4 (antibody, V domains shown)
VH: AVTLDESGGGLQTPGGGLSLICKASGFSMRSYAMNWVRQAPGKGLEFVAGIDNTGRYTGYGSAVKGRATISRDNGQSTVRLQLNNLRAEDTGTYYCAKNVDVAGSGCDWSSGCIDAWGHGTEVTVS
VL: ASTQPSSVSANPGETVKITCSGGSSTYYGWYQQKSPGSAPVTVIYQNTKRPSGLSSRFSGSKSGSTATLTITGVQAEDEAVYFCGGYDTRTYAGIFGAGTTLTVL
notes: Chicken variable regions recombined into mouse chimeric antibody (IgG1) expression vectors; also called anti-PAD4 antibody P4; P1 etc
Kd [1]: 15 nM | inhibition rate of citrullinating activity of active PAD4 (BAEE substrate, colorimetric) [2]: 82%

B4: P2 (antibody, V domains shown)
VH: AVTLDESGGGLQTPGGALSLVCKASGFHMRSYAMNWVRQAPGKGLEFVAGIDNSGRYRNYGAAVKGRATISRDNGQSTVRLQLNNLRAEDTGIYYCAKNFDVGGDGCDWSSGCIDAWGHGTEVIVS
VL: ASTQPASVSANPGETVKITCSGGSSTYYGWYQQKSPGSAPVTVIYQNTNRPSDIPSRFSGSKSGSTATLTITGVQAEDEAVYFCGGYDRSNYAGIFGAGTTLTVL
notes: Chicken variable regions recombined into mouse chimeric antibody (IgG1) expression vectors; also called anti-PAD4 antibody P2; P1 etc
binding result [3]: binds | Kd [1]: 31 nM | inhibition rate of citrullinating activity of active PAD4 (BAEE substrate, colorimetric) [2]: 62%

— patent publication WO2019131769A1 (dated 2019)
